# Data: patent publication US20260184748A1, “COMPOSITIONS COMPRISING OCTADECANEUROPEPTIDES (ODN) AND SYNTHETIC DERIVATIVES THEREOF AND METHODS OF USE FOR MODULATION OF FOOD INTAKE, OBESITY, BODY WEIGHT, NAUSEA, AND EMESIS” (The Trustees of the University of Pennsylvania, priority 2022, published 2026)
# “Also recorded” adds a separate entry of the source.
# T1: relaxin-3 receptor (Rattus norvegicus, UniProt Q5Y987)
# T1 construct: expressed a high level of the relaxin-3 receptor; from tissue; host or cells: rat brain, nucleus incertus (living animal)
# T1 sequence (Q5Y987 1-469): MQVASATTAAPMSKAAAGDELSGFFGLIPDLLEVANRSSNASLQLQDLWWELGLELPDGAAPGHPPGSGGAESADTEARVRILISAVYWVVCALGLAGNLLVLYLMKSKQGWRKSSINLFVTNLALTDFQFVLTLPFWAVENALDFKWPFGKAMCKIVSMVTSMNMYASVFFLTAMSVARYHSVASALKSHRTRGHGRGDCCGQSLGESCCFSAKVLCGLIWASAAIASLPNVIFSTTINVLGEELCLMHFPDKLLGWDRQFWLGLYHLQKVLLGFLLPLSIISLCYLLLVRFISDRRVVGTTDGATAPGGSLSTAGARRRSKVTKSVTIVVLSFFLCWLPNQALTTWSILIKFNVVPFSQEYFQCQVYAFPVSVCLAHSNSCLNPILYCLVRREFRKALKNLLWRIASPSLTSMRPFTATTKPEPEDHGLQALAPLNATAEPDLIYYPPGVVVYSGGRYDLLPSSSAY
# T2: RXFP3 (Homo sapiens, UniProt Q9NSD7)
# T2 sequence (Q9NSD7 1-469): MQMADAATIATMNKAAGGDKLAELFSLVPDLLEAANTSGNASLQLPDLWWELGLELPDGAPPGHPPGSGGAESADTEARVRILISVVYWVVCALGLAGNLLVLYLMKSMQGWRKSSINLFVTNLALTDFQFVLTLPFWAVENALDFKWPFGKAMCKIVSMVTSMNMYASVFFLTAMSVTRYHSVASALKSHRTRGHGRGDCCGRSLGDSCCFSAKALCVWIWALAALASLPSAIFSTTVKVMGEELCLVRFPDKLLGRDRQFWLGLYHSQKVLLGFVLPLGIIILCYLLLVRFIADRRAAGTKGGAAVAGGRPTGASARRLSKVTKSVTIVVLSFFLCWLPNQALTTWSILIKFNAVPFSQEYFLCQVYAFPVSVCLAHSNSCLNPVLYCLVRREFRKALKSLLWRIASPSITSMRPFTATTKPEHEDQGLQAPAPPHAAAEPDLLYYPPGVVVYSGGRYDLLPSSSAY
# T3: CCR9 (Homo sapiens, UniProt P51686)
# T3 sequence (P51686 1-369): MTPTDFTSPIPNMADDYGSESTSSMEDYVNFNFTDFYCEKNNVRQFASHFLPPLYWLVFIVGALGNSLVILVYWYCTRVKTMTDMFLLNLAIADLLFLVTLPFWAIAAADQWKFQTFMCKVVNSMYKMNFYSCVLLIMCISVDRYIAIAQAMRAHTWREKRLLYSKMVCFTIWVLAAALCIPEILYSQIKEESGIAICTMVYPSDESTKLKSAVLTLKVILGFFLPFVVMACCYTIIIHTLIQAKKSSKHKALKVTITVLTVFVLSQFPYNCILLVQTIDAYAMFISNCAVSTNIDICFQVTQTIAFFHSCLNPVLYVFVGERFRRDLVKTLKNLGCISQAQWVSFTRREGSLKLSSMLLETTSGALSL
# T4: CCR4 (Homo sapiens, UniProt P51679)
# T4 sequence (P51679 1-360): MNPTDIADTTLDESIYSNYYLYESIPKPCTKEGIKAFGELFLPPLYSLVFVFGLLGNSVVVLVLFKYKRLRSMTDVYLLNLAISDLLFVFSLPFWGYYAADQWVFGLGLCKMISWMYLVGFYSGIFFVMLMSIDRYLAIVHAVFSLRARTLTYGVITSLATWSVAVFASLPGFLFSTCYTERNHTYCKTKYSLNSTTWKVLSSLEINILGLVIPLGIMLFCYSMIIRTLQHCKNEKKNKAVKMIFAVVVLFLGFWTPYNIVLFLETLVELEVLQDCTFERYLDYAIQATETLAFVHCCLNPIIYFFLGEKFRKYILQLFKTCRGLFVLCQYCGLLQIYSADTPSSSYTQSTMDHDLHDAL
# T5: CCR10 (Homo sapiens, UniProt P46092)
# T5 sequence (P46092 1-362): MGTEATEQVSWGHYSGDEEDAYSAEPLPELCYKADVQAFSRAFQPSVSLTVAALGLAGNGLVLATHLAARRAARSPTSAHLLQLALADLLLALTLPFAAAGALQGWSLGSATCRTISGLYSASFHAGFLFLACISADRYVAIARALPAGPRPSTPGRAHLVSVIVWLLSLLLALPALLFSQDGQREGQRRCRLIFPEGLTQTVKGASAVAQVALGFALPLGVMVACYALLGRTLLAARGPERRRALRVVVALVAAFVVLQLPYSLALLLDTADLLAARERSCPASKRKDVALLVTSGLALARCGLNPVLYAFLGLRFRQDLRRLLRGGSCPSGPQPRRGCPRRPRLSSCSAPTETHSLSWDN
# T6: C5aR1 (Homo sapiens, UniProt P21730)
# T6 sequence (P21730 1-350): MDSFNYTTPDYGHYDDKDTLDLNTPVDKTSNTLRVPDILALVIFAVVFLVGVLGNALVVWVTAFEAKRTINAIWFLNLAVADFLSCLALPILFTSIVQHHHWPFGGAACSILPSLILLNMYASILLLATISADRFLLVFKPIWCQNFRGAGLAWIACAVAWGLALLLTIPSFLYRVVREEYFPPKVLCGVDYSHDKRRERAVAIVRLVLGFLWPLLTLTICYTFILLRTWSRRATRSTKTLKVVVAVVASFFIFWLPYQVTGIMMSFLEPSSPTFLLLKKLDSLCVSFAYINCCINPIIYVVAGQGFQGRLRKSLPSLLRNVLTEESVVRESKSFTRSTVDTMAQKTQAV
# B1: Relaxin-3: Recombinant human relaxin-3 (130-10, PreproTech); control agonist of RXFP3 (protein)
# chain 1: RAAPYGVRLCGREFIRAVIFTCGGSRWRRSDILAHEAMGDTFPDADADEDSLAGELDEAMGSSEWLALTKSPQAFYRGRPSWQGTPGVLRGSRDVLAGLSSSCCKWGCSKSEISSLC
# chain 2: B1 chain 1
# B2: CCL25: control agonist (protein)
# chain: QGVFEDCCLAYHYPIGWAVLRRAWTYRIQEVSGSCNLPAAIFYLPKRHRKVCGNPKSREVQRAMKLLDARNKVFAKLHHNTQTFQAGPHAVKKLSSGNSKLSSSKFSNPISSSKRNVSLLISANSGL
# B3: CCL1: control agonist (protein)
# chain: KSMQVPFSRCCFSFAEQEIPLRAILCYRNTSSICSNEGLIFKLKRGKEACALDTVGWVQRHRKMLRHCPSKRK
# B4: CCL22: control agonist (protein)
# chain: GPYGANMEDSVCCRDYVRYRLPLRVVKHFYWTSDSCPRPGVVLLTFRDKEICADPRVPWVKMILNKLSQ
# B5: EG VEGF: control agonist (protein)
# chain: AVITGACERDVQCGAGTCCAISLWLRGLRMCTPLGREGEECHPGSHKVPFFRKRKHHTCPCLPNLLCSRFPDGRYRCSMDLKNINF
# B6: CCL27: control agonist (protein)
# chain: FLLPPSTACCTQLYRKPLSDKLLRKVIQVELQEADGDCHLQAFVLHLAQRSICIHPQNPSLSQWFEHQERKLHGTLPKLNFGMLRKMG
# B7: Complement C5a: control agonist (protein)
# chain: TLQKKIEEIAAKYKHSVVKKCCYDGACVNNDETCEQRAARISLGPRCIKAFTECCVVASQLRANISHKDMQLGR
# B8: recombinant DBI protein: Rat recombinant diazepam binding inhibitor (DBI) protein (LS-G136996, Lifespan Biosciences) (protein, UniProt P11030 2-87, looked up)
# Acyl-CoA-binding protein: SQADFDKAAEEVKRLKTQPTDEEMLFIYSHFKQATVGDVNTDRPGLLDLKGKAKWDSWNKLKGTSKENAMKTYVEKVEELKKKYGI
# B9: CXCL16: control agonist (protein)
# chain: NEGSVTGSCYCGKRISSDSPPSVQFMNRLRKHLRAYHRCLYYTRFQLLSWSVCGGNKDPWVQELMSCLDLKECGHAYSGIVAHQKHLLP
# How the values were obtained:
# [1] = Insulin tolerance test after 4th ventricle ODN; format: in vivo, rat; conditions: 4th ventricle pretreatment then ODN 200 μg/2 μL; chow rats
# [2] = molecular target: T1, relaxin-3 receptor; assay: Central ODN antagonizes relaxin-3 induced hyperphagia; format: in vivo; conditions: injection into the nucleus incertus; rats
# Experimental: Rats were stereotaxically implanted with a bilateral guide cannula (26-ga, Plastics One) aimed at the nucleus incertus (guide cannula coordinates: ±0.5 lateral to midline, 9.5 mm […] to bregma, 5.8 mm ventral to skull; internal cannula aimed 7.8 mm ventral to skull). Recombinant human relaxin-3 was purchased (130-10, PreproTech Inc.) and ODN was synthesized by the Doyle laboratory. […] 24 h food intake was recorded in a Biodaq system (Research Diets, Inc).
# [3] = molecular target: T2, RXFP3; assay: Arrestin agonist mode; format: cell-based; conditions: read-out: RC50 (the source's name)
# [4] = molecular target: T3, CCR9; assay: Arrestin agonist mode; format: cell-based; conditions: read-out: RC50 (the source's name)
# [5] = molecular target: CCR8 (Homo sapiens, UniProt P51685); assay: Arrestin agonist mode; format: cell-based; conditions: read-out: RC50 (the source's name)
# [6] = molecular target: T4, CCR4; assay: Arrestin agonist mode; format: cell-based; conditions: read-out: RC50 (the source's name)
# [7] = molecular target: PROKR1 (Homo sapiens, UniProt Q8TCW9); assay: Arrestin agonist mode; format: cell-based; conditions: read-out: RC50 (the source's name)
# [8] = molecular target: PROKR2 (Homo sapiens, UniProt Q8NFJ6); assay: Arrestin agonist mode; format: cell-based; conditions: read-out: RC50 (the source's name)
# [9] = molecular target: T5, CCR10; assay: Arrestin agonist mode; format: cell-based; conditions: read-out: RC50 (the source's name)
# [10] = molecular target: T6, C5aR1; assay: Arrestin agonist mode; format: cell-based; conditions: read-out: RC50 (the source's name)
# [11] = molecular target: C5L2 (Homo sapiens, UniProt Q9P296); assay: Arrestin agonist mode; format: cell-based; conditions: read-out: RC50 (the source's name)
# [12] = Food intake and meal pattern after central injection in rats; format: in vivo, rat; conditions: for food intake: 4th ventricle injection
# Experimental: Rats were exposed to kaolin for at least 5 days prior to measuring kaolin consumption in pica testing. Except for studies conducted in the BioDaq, for all feeding studies rats were housed in hanging wire cages to allow for accurate measurement of food spillage.
# For cannula implantation, rats were anesthetized by intraperitoneal injection of a mixture containing ketamine (90 mg/kg, Butler Animal Health Supply), xylazine (2.7 mg/kg, Anased), and acepromazine (0.64 mg/kg, Butler Animal Health Supply) (KAX) and then placed into a stereotaxic apparatus. Each rat was stereotaxically implanted with a guide cannula (26-ga, Plastics One) aimed at the fourth ventricle (guide cannula coordinates: on midline, 2.5 mm anterior to occipital suture, 5.2 mm ventral to skull; internal cannula aimed 7.2 mm ventral to skull) or the lateral ventricle (guide cannula coordinates: 1.5 mm lateral to midline, 0.9 mm posterior to bregma, 1.8 mm ventral to skull; internal cannula aimed 3.8 mm ventral to skull). For all cannulas, dummies (no projection beyond guide) were inserted in the guide cannula and left until infusions were performed. For all surgeries, rats received post-operative temperature support and analgesia was provided immediately following surgery and for two post-operative days (2 mg/kg meloxicam).
# [13] = 24 h body weight change in rats; format: in vivo, rat; conditions: 4th ventricle injection
# [14] = molecular target: CXCR6 (Homo sapiens, UniProt O00574); assay: Arrestin agonist mode; format: cell-based; conditions: read-out: RC50 (the source's name)
# [15] = 4th ventricle, chow-maintained rats
# Sequence of C5L2 (Q9P296 whole entry): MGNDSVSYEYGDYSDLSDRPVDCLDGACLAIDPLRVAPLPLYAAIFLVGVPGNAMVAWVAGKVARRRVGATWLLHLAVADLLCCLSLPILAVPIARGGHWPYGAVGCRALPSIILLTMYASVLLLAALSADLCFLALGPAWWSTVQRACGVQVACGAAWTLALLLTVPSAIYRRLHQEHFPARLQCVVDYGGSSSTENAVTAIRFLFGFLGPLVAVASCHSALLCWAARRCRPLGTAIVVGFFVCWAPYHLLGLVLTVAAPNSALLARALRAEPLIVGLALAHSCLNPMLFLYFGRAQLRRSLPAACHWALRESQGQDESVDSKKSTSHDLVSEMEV
# Sequence of PROKR2 (Q8NFJ6 whole entry): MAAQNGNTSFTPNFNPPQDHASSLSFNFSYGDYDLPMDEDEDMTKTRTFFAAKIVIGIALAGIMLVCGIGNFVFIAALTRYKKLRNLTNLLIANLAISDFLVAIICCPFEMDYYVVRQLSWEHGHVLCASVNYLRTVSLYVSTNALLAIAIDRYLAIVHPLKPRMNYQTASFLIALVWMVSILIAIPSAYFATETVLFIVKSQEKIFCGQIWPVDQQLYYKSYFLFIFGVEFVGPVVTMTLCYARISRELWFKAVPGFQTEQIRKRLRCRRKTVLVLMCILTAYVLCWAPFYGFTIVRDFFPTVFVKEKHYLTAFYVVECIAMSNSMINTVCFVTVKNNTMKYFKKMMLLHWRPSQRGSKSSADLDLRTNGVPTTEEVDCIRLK
# Sequence of CXCR6 (O00574 whole entry): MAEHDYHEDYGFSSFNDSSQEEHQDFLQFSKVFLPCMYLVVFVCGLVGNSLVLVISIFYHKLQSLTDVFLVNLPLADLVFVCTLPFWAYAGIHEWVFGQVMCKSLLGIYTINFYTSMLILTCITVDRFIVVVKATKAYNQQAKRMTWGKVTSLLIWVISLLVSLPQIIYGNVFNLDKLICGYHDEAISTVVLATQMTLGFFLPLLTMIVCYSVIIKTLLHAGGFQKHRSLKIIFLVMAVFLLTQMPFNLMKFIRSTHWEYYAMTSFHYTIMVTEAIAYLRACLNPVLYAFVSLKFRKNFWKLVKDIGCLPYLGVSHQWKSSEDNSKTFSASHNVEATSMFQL
# Sequence of PROKR1 (Q8TCW9 whole entry): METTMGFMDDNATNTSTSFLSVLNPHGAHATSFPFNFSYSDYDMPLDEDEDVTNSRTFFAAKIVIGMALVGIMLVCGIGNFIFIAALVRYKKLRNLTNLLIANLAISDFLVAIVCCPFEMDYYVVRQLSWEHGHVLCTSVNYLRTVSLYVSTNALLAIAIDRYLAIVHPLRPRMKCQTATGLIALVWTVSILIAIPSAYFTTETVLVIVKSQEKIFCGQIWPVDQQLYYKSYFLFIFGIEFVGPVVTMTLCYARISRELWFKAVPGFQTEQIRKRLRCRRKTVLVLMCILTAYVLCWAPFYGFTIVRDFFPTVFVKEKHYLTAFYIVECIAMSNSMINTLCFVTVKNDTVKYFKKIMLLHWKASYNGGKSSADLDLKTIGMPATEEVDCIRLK
molecule,measurement,setting,value
B1,effect of pretreatment on ODN improvement in insulin tolerance,[1],block hindbrain ODN improvements in insulin tolerance
same,24-hour food intake and body weight,[2],increased 24-hour food intake and body weight
same,EC50,[3],11.9 nM
B2,EC50,[4],173 nM
B3,EC50,[5],45.8 nM
B4,EC50,[6],3.44 nM
B5,EC50,[7],17.7 nM
same,EC50,[8],10.6 nM
B6,EC50,[9],26.3 nM
B7,EC50,[10],1.38 nM
same,EC50,[11],1.57 nM
B8,food intake,[12]; HFD-maintained rats,not high-fat diet (HFD) rats
same,food intake,"[12]; HFD-maintained rats, listed as DBI",did not decrease food intake in HFD-maintained rats
same,food intake,[12]; chow-maintained rats,suppresses food intake in chow fed rats; also recorded: hypophagic in chow
same,food intake,"[12]; chow-maintained rats, listed as DBI","significantly reduced food intake at 4, 5, and 7-24 hours post injection; also recorded: decreased food intake at 4, 5, and 7-24 hours post injection"
same,number of bouts,[12]; [15],decreased the number of bouts at 8 and 21 hours post injection
same,number of meals,[12]; [15],decreased the number of meals at 8-10 and 12-21 hours post injection
same,time spent in bouts,[12]; [15],did not alter the time spent in bouts
same,time spent in meals,[12]; [15],decreased the time spent in meals 8-24 hours post injection
same,24 h body weight change,[13]; HFD-maintained rats,not significantly decreased
same,24 h body weight change,[13]; chow-maintained rats,not significantly decreased
B9,EC50,[14],6.81 nM
